The results in this text go back to US20130039922A1 (YEDA RESEARCH AND DEVELOPMENT, published 2013).

One experiment has as its target T1, Human Pro-MMP-9 (human, UniProt P14780 20-707).
T1 construct: Zymogen with pro-domain; also called MMP-9 zymogen
As to the kind of experiment: pull-down with SDS3 on protein A beads, SDS-PAGE, Coomassie staining. As to the method:
(§1) FIGS. 7A-B are photographs illustrating that SDS3 recognizes only the active conformation of MMP-2 and -9. FIG. 7A: Western blot analyses of MMP-9 using commercial anti-MMP-9 antibody. Lane 1—SDS3 captured from mice ascetic fluid by protein G beads; lane 2—As control non-related IgG similarly captured; lane 3—ProMMP-9, as a molecular weight marker to discern the active species. FIG. 7B: SDS3 mAb immobilized to protein A beads was analyzed for its ability to pull down purified ProMMP-9 (top), ProMMP-2 (middle) or active MMP-2 (bottom). Immunoprecipitates (lane 1) and unbound fraction (lane 2) were separated on SDS/PAGE gel, and visualized by Coomassie-staining. As a negative control for non-specific adsorption, enzyme alone was incubated with protein A Sepharose beads (lane 3).
(§2) After washing unbound antibody, purified enzyme ProMMP-9, Pro-MMP-2, or active MMP-2 fragment (catalytic and fibronectin domain), was added following 2 hour incubation under continuous stirring at room temperature. Bead-bound immune complex was collected by centrifugation and washed three times with PBS. Bound proteins were eluted with SDS sample buffer, fractionated by SDS-PAGE, and detected by Coomassie blue staining. As negative control for non specific adsorption enzyme was incubated with protein A Sepharose beads.

A further experiment deals with T2, Human pro-MMP-2 (human, UniProt P08253 30-660).
T2 construct: Zymogen with pro-domain; also called MMP-2 zymogen
T2 sequence (looked up): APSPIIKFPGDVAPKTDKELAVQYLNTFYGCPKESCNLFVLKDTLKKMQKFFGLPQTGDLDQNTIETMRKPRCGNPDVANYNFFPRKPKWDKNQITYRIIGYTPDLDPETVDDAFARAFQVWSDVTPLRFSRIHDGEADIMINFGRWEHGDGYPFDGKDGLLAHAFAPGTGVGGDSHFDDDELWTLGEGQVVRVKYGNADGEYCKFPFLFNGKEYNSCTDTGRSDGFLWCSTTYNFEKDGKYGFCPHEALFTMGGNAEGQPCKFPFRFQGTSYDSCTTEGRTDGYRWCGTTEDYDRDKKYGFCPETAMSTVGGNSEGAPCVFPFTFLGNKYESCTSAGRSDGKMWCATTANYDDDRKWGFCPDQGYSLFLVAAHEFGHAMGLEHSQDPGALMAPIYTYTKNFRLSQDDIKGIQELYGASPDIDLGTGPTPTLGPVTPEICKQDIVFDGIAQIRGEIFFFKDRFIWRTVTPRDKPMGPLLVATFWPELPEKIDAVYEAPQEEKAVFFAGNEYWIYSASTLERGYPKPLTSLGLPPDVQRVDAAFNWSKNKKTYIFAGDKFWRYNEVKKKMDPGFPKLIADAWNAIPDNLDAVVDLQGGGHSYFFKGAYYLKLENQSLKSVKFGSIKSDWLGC
The description is as above. Here is the method: as §1, §2

The target of experiment [1] is T3, active MMP-9 (as used in the enzymatic kinetic assay and the XAS studies). Put plainly: cell-based or functional assay.
Experiment [2] has as its target T4, MMP-9 catalytic fibronectin fragment (human or mouse (not told which)).
T4 construct: domain: catalytic fibronectin fragment; Immobilized on a streptavidin (SA) sensor chip for SPR; also called Biotinylated human or mouse MMP-9 catalytic fibronectin fragment; Biotin-labeled MMP-9
Put plainly: SPR (BIAcore 3000), biotin-labeled MMP-9 on SA chip, antibody in flow; KD=kd/ka. From the text: (§3) FIGS. 13A-B are graphs illustrating results of SPR analysis of SDS3/SDS4 binding to MMP-9. Biotinylated human or mouse MMP-9 catalytic fibronectin fragment was immobilized on streptavidin (SA) chip. Control-corrected sensorgrams corresponding to the interaction of SDS3(FIG. 13A) and SDS4 (FIG. 13B) with biosensor surface-immobilized MMP-9 are shown. Antibody concentrations are represented by different colors, with specific values indicated. The data were collected in duplicate, and representative SPR sensorgrams in the ligand concentration series are shown. The ka (1/Ms) and kd (1/s) values were determined by SPR analysis, and KD (M) was calculated from ka and kd (KD=kd/ka).RU,response units.
The affinity between SDS3/SDS4 and human and mouse MMP-9 catalytic fibronectin fragment was measured with a BIAcore 3000 instrument (BIACORE). Biotin-labeled MMP-9 was immobilized on a sensor chips SA by the biotin-streptavidin coupling method, according to the manufacturer's instructions. […] The interaction was monitored as the change in the SPR response. The association and dissociation rate constants, kₐ and kd, were determined by analysis of the appropriate regions of the sensogram using the BIAevaluation 3.2 software package (Pharmacia). The apparent equilibrium dissociation constant KD was determined from the ratio of the two rate constants (kd/kₐ).
Background: In SPR one partner is held on a chip, and binding of the other changes the refractive index at the surface.

Experiment [3] deals with T3, active MMP-9 (as used in the enzymatic …). Put plainly: enzyme kinetics, fluorogenic peptide hydrolysis, fit to competitive inhibition. Here is the method: (§4) Similarly the enzymatic activity of TACE was measured by monitoring the degradation of fluorogenic peptide QF-45 (Mca-[…]dinitrophenyl)-NH2) (SEQ ID NO: 2). A range of different mAb concentrations (0.4-30 μM) were pre-incubated with 2 nM of active enzyme in 50 mM Tris buffer (pH 7.5 37° C.), 200 mM NaCl, 5 mM CaCl₂, and 0.05% Brij 35 for 40 minutes at 37° C. The enzymatic reaction was initiated by addition of 10 μM of the fluorogenic peptide. Fluorescence (as a measure of substrate degradation) was immediately recorded continuously for 30-50 minutes. Initial reaction rates were measured and inhibition constants were evaluated by fitting to equation of competitive inhibition (vi/vo=Km+[S]/(Km(1+I/Ki)+[S]) [I. H. Segel, Enzyme Kinetics (Wiley-Interscience Publication, 1993)], where vi is initial velocity in the presence of mAb, vo is the initial velocity in the absence of mAb inhibitor, S is substrate concentration Km is the Michaelis-Menten constant and I is mAb concentration.
(§5) The effect of SDS3 and SDS4 on MMPs' enzymatic activity was examined using to standard peptide hydrolysis assay based on conversion of fluorogenic peptide substrate [C. G. Knight, F. Willenbrock, G. Murphy, FEBS Lett 296, 263 (Jan. 27, 1992)] as well as native gelatin substrate. Initial reaction velocities were measured in the presence of several concentrations of metallobodies incubated with various MMPs and tumor necrosis factor-alpha converting enzyme (TACE).

The target of experiment [4] is MMP-2 (as used in the enzymatic kinetic assay). Described as above. As to the method: as §4, §5
In experiment [5] the target is T5, mouse MMP-9 catalytic domain (mouse, UniProt P41245 107-215; P41245 391-443, biotinylated (site not stated)).
T5 construct: range 107-215;range 391-443; also called Biotinylated mouse catalytic MMP-9; not shown: N-terminal His tag from the pET3a construct
T5 sequence (looked up): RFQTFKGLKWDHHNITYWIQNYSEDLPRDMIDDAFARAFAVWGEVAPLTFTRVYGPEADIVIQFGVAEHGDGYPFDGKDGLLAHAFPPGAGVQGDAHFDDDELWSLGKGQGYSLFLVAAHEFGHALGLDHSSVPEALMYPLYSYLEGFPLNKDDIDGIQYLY
Put plainly: ELISA, biotinylated mouse catalytic MMP-9 on streptavidin plate, soluble antibody. Here is the method: ELISA Binding Assay: Biotinylated mouse catalytic MMP-9 was coupled to streptavidin coated microtiter plate (Nunc) according to manufacture protocol. After the plates were coated, they were incubated with the SDS3/4 mAb for 2 hours at room temperature. The plates were washed, and bound Ab was detected with peroxidase-labeled goat anti-mouse IgG (Jackson) according to standard procedures. EC₅₀, or concentration of half-maximal binding was calculated from a four-parametric sigmoidal-curve fitting analysis.

In experiment [6] the target is T6, native bovine serum albumin (bovine, UniProt P02769 25-607).
T6 construct: Unconjugated carrier protein used as the counter-screen in the hybridoma ELISA; also called native BSA; BSA
As to the kind of experiment: ELISA screen of hybridoma supernatants on plate-absorbed antigen. Here is the method:
Preparation of Anti-MMP Metallobodies Using Zn-Tripod-KLH as an Immunogen: Female BALB/c mice were immunized on day 1 with complete Freund adjuvant and 50 μg of Zinc-Tripod-KLH and boosted every two weeks with incomplete Freund adjuvant by emulsifying and intraperitoneal injection. Spleen cells from the immunized mice were fused with NSO murine myeloma cells and cultured in HAT (hypoxantine/aminopterin/thymidine) selection medium. The culture supernatants of the hybridoma were screened using an ELISA, employing pairs of wells in microtiter plates on which were absorbed MMP-9 catalytic domain and Zinc-Tripod-BSA as antigens (0.5 μg of MMP-9 or Zinc-Tripod-BSA conjugate per well). After incubation with 100 μl of the hybridoma supernatants, and with intervening washes with Tris-buffered saline, pH 7.5, containing 0.05% Tween 20 (TBS-Tween), the wells were incubated with a peroxidase-conjugated goat anti-mouse IgG, followed by a substrate solution containing 2′-azino-bis(3-ethylbenzthiazoline-6-sulfonic acid) diammonium salt. Hybridoma cells, corresponding to the supernatants that were positive on both MMP-9 and Zinc-Tripod—BSA and negative on native BSA, were then cloned by limited dilution. After repeated screenings, four clones showing the most distinctive recognition of both antigens were obtained and clone SDS3 was chosen for further characterization.

For experiment [7], the target named is T4, MMP-9 catalytic fibronectin fragment. As to the kind of experiment: SPR (BIAcore 3000), biotin-labeled MMP-9 on SA chip, antibody in flow.
Excerpt: as §3
The affinity between SDS3/SDS4 and human and mouse MMP-9 catalytic fibronectin fragment was measured with a BIAcore 3000 instrument (BIACORE). Biotin-labeled MMP-9 was immobilized on a sensor chips SA by the biotin-streptavidin coupling method, according to the manufacturer's instructions. All measurements were carried out at 25° C. and with a flow rate of 20 μl/min for both the association and dissociation phases in TBS buffer (50 mM Tris, 100 mM NaCl, 5 mM CaCl₂, pH 7.5). The interaction was monitored as the change in the SPR response. The association and dissociation rate constants, kₐ and kd, were determined by analysis of the appropriate regions of the sensogram using the BIAevaluation 3.2 software package (Pharmacia). The apparent equilibrium dissociation constant KD was determined from the ratio of the two rate constants (kd/kₐ).

For experiment [8], the target named is T3, active MMP-9 (as used in the enzymatic …). As to the kind of experiment: cell-based or functional assay. The source holds these as a separate data set.
Experiment [9] has as its target MMP-2 (as used in the enzymatic kinetic assay). Put plainly: cell-based or functional assay.
Experiment [10] concerns the target T7, human MT1-MMP catalytic domain (human, UniProt P50281 114-290).
T7 construct: range 114-290; also called MMP-14; MMP-14 catalytic domain; not shown: N-terminal His tag from the pET3a construct
Put plainly: enzyme kinetics, fluorogenic peptide hydrolysis, fit to competitive inhibition. As to the method:
as §4, §5

The target of experiment [11] is T7, human MT1-MMP catalytic domain. As to the kind of experiment: cell-based or functional assay.

Chain of MMP-2 (as used in the enzymatic kinetic assay) (P33434 110-467): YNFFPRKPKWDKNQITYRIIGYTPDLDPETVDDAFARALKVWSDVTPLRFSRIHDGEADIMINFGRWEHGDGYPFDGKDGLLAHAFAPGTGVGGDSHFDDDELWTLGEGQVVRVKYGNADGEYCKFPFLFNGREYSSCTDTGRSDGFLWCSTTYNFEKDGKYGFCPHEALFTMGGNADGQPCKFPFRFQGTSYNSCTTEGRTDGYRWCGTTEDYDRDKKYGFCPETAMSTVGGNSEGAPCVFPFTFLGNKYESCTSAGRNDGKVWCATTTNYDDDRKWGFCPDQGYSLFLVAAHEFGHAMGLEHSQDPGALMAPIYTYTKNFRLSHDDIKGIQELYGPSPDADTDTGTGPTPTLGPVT
T6 sequence (P02769 25-607 limits assumed): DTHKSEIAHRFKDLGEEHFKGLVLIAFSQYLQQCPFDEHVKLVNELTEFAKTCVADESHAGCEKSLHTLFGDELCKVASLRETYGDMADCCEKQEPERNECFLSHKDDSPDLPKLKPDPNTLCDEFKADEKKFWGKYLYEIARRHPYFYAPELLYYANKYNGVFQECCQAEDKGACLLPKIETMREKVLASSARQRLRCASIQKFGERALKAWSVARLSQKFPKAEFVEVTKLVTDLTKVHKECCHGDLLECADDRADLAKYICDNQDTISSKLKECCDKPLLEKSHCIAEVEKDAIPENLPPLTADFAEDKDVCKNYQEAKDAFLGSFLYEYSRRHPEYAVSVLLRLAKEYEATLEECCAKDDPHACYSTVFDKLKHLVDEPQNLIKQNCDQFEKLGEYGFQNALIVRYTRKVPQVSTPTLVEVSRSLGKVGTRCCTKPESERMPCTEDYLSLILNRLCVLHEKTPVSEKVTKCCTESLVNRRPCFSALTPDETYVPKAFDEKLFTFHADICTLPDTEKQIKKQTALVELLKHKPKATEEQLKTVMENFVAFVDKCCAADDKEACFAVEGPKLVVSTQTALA
T1 sequence (P14780 20-707): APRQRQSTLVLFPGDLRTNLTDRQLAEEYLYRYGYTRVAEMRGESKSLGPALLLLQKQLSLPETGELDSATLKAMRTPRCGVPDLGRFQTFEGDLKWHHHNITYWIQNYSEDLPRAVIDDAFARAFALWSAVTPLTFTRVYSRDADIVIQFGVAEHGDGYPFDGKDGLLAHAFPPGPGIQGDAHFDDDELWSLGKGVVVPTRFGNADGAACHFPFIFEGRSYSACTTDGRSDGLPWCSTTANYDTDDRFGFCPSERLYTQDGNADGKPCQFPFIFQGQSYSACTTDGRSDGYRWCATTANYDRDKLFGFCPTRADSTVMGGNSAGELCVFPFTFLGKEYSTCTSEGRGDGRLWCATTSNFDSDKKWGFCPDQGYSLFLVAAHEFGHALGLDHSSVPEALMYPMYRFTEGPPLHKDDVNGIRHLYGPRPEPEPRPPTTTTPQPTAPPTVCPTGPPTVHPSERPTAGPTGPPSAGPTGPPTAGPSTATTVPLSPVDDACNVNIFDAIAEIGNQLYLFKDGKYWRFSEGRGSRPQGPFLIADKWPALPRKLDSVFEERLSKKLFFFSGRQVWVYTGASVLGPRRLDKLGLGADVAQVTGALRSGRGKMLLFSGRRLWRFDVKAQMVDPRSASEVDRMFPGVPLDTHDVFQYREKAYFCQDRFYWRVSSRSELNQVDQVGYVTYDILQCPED

B1: SDS3 (antibody, V domains shown)
VH: VQLQESGGGLVKPGGSLKLSCAASGFAFSTYDMSWIRQTPEKRLEWVATISSGGSYTYYPDSVKGRFTISKDNARNTLYLQMSSLRSGDTALYYCTRFRYDGWYFDVWGQG
VL: DVLITQTPLSLPVSLGDQASISCRSSQSIVHSNGNTFLEWYLQKPGQSPKLLIYKVSNRFSGVPDRFSGSGSGTDFTLKISRVEAEDLGVYYCFQASHVPPTFGGG
notes: Mouse hybridoma monoclonal antibody raised against Zn-Tripod-KLH; also called SDS3 mAb; SDS3 metallobody
For B1, the binding result (with Human Pro-MMP-9; with Human pro-MMP-2; in experiment [6]) was “no binding” in each case. Moreover, the “IC50 (read off the curve)” value in [1] is ~3000 nM. Further, in experiment [2], the affinity, expressed as Kd, was 200 nM. The inhibition constant Ki in experiment [3] and in [4] was 1000 nM throughout. In [5], a half-maximal effect (EC50) was put at 200 nM. Besides, the koff (usually the rate constant with which the complex falls apart) in experiment [7] is 0.00135 s⁻¹. Moreover, in experiment [7], the kon – broadly, a measure of how fast the partners come together – is 6640 M⁻¹ s⁻¹. Moreover, the figures for the “IC50 of inhibition of enzymatic activity (fluorogenic peptide hydrolysis)” value in [8] and in experiment [9] were 1000 nM and 1400 nM, respectively.

B2: SDS4 (antibody, V domains shown)
VH: EVQLQQSGPELVKPGASVKISCKASGYTFTGYYMHWVKQSPEKSLEWIGEINPSTGGTTYNQKFTGKATLTVDKSSSTAYMQLKSLTSDDSAVYYCASYYRYDWFAYWGQGTLVTVSA
VL: DVLMTQTPLSLPVSLGDQASISCRSSQSLVHSNGNTYLHWYLQKPGQSPKLLIYKVSNRFSGVPDRFSGSGSGTDFTLKISRVEAEDLGVYFCSQSTHVPFTFGSGTKLELKR
notes: Mouse hybridoma monoclonal antibody raised against Zn-Tripod-KLH; also called SDS4 mAb; SDS4 metallobody
For the molecule B2, the equilibrium dissociation constant (Kd) (commonly a measure of binding affinity in units of concentration) in experiment [2] was 3.78 nM. Also, the Ki (as a rule, a dissociation constant, usually derived from enzyme kinetics or from competition with a known ligand) was found to be 1400 nM in experiment [10], 54 nM in [3] and 54 nM in experiment [4]. Further, the EC50 (as a rule, the concentration needed to bring the measured effect to its halfway point) in experiment [5] came to 15 nM. In addition, the koff in experiment [7] stood at 0.00166 s⁻¹. The molecule also came in with a kon in experiment [7] of 439000 M⁻¹ s⁻¹. Moreover, the “IC50 of inhibition of enzymatic activity (fluorogenic peptide hydrolysis)” value in experiment [11] amounted to 1420 nM; in [8], 70 nM; in experiment [9], 56 nM.
